Target: T1, rat ROBO4 (pCI-raROBO4-transfected HEK293 cells) (rat, UniProt Q80W87 38-949 at identity 0.93))
T1 chain: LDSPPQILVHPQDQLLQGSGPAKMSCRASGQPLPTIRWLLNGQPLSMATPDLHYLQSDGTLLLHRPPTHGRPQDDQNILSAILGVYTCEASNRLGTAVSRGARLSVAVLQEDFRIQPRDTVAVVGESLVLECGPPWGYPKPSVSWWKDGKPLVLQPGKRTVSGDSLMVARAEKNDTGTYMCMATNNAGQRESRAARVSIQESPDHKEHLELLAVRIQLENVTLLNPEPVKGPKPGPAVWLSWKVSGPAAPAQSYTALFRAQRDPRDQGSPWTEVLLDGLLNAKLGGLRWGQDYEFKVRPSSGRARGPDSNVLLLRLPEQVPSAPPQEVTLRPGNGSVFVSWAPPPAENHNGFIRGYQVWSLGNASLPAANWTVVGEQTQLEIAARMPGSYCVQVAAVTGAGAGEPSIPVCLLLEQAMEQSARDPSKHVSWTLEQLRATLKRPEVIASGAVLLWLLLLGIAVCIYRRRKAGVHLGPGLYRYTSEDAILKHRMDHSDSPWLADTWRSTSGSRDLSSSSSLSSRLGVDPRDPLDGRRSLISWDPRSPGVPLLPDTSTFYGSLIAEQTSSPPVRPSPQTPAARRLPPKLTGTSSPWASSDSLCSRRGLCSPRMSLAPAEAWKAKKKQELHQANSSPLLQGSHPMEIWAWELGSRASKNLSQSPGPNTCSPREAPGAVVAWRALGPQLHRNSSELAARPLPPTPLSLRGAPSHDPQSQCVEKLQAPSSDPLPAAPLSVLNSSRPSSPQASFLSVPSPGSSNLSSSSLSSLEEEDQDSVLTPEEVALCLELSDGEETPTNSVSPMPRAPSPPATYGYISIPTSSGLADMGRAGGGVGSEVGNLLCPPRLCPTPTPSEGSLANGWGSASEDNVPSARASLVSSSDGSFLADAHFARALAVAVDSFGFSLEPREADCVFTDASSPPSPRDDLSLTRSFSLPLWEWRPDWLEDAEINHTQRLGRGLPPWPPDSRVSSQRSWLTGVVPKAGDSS
Experiment: flow cytometry, HEK293 cells transfected with pCI-raROBO4, anti-mouse IgG FITC; control histogram IgG (Mouse IgG2a)
Method: HEK293 cells were inoculated at a concentration of 1.5×10⁶ cells/dish to a 60-mm dish (manufactured by Corning Inc.) and cultured overnight in a DMEM medium containing 10% FBS at 37° C. under 5% CO₂ conditions. On the next day, the HEK293 cells were transfected with pCI-hROBO4, pCI-mROBO4, pCI-raROBO4, pCI-FLAG-cynoROBO4-1, pCI-FLAG-cynoROBO4-2, pCI-hROBO1, pCI-hROBO2, or pCI-hROBO3 using FuGENE6 Transfection Reagent and further cultured overnight at 37° C. under 5% CO₂ conditions. On the next day, the expression vector-transfected cells were treated with TrypLE Express (manufactured by Life Technologies Corp.), washed with PBS containing 5% FBS, and then suspended in PBS containing 5% FBS. The obtained cell suspension was used in flow cytometry analysis.
Each cell suspension prepared in 4)-3-1 was centrifuged, and the supernatant was removed. Then, MAb1 or a negative control Mouse IgG2a was added at a concentration of 10 μg/mL to 2×10⁵ expression vector-transfected cells, and the resulting suspension was left standing at 4° C. for 1 hour. […] Data was analyzed using Flowjo. The histogram of FITC fluorescence intensity was prepared. The antibody was determined to bind in a cross-species manner when the histogram of MAb1 was shifted to a stronger fluorescence intensity region compared with the histogram of the negative control Mouse IgG2a.

- binding result: no binding (tested: 10 µg/mL)
B1: anti-ROBO4 mouse monoclonal antibody MAb1 (antibody, mouse IgG1, V domains shown)
VH: EVQLVESGGGLVKPGGSLKLSCAASGFTFSTYAMSWVRQTPEKRLEWVATISNGGTYTYYPDSVKGRFTISRDNAENTLYLQMSSLRSEDTAMYFCARLIYYDYLDYWGHGTTLTVSS
VL: DAVMTQTPLSLPVSLGDQASISCRSSQSLENSNGNTYLNWYFQKPGQSPQLLIYRVSNRFSGVLDRFSGSGSGTDFTLKISRVEAEDFGVYFCLQVTHVPWTFGGGTKLEIKR
notes: Mouse IgG1 (gamma1), kappa light chain, purified from hybridoma supernatant; also called parent antibody MAb1

Reference: patent US20150098945A1 (Daiichi Sankyo, published 2015)
